Data as given in the supplement of paper PMC10724198.
± gives the standard deviation of the averaged measurements.

Assays:
Saccharomyces cerevisiae [1] = assay: protein stability index of tFT-peptide fusion (C-terminal peptide) (PSI (0-1 scale)); higher = more stable (slower turnover); conditions: genetic background: wild type; temperature: 30 C
Saccharomyces cerevisiae [2] = assay: as above
Protocol: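 MPS profiling in S. cerevisiae of the tFT-X12 degron library: putative degron peptides plus stable controls, 12 aa, fused to the C-terminus of a sfGFP-mCherry timer. Cells are FACS-sorted into 8 mCherry/sfGFP bins and deep-sequenced. PSI runs from 0 (unstable) to 1 (stable). Backgrounds are wild type, das1Δ and doa10Δ at 30 °C, and wild type, das1Δ, cdc34-1 and cdc53-1 at 37 °C; 2-3 technical replicates each.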

[3] = genetic background: cdc34-1, temperature: 37 C
[4] = genetic background: cdc53-1, temperature: 37 C
[5] = genetic background: das1 deletion, temperature: 30 C
[6] = genetic background: das1 deletion, temperature: 37 C
[7] = genetic background: doa10 deletion, temperature: 30 C
[8] = genetic background: wild type, temperature: 30 C
[9] = genetic background: wild type, temperature: 37 C
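Further: PSI is a weighted mean of sequencing reads over stability bins, variants kept only with over 10 reads, mCherry proximal and sfGFP distal, peptide attached via GGGS linker.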

| Sequence | protein stability index (Saccharomyces cerevisiae [1]) | protein stability index (Saccharomyces cerevisiae [2]; [3]) | protein stability index (Saccharomyces cerevisiae [2]; [4]) | protein stability index (Saccharomyces cerevisiae [2]; [5]) | protein stability index (Saccharomyces cerevisiae [2]; [6]) | protein stability index (Saccharomyces cerevisiae [2]; [7]) | protein stability index (Saccharomyces cerevisiae [2]; [8]) | protein stability index (Saccharomyces cerevisiae [2]; [9]) |
| --- | --- | --- | --- | --- | --- | --- | --- | --- |
| LLLPVFRFFFVN | 0.203 ± 0.04 | 0.468 ± 0.032 | 0.632 ± 0.065 | 0.554 ± 0.026 | 0.672 ± 0.021 | 0.0849 ± 0.023 | 0.109 ± 0.007 | 0.143 ± 0.0049 |
| ICQLLKFPLFWC | 0.113 ± 0.034 | 0.542 ± 0.025 | 0.567 ± 0.024 | 0.521 ± 0.024 | 0.7207 ± 0.0058 | 0.311 ± 0.019 | 0.288 ± 0.026 | 0.4916 ± 0.0032 |
| LCIRHFRLLELL | 0.276 ± 0.0069 | 0.5607 ± 0.0046 | 0.72 ± 0.014 | 0.642 ± 0.033 | 0.728 ± 0.041 | 0.165 ± 0.011 | 0.167 ± 0.016 | 0.268 ± 0.021 |
| SFTVFVVLLFPP | 0.323 ± 0.062 | 0.311 ± 0.021 | 0.437 ± 0.05 | 0.284 ± 0.032 | 0.476 ± 0.024 | 0.288 ± 0.013 | 0.304 ± 0.0095 | 0.4293 ± 0.00063 |
| DILQITNIKQKR | 0.572 ± 0.16 | 0.71 ± 0.041 | 0.741 ± 0.015 | 0.676 ± 0.038 | 0.731 ± 0.021 | 0.654 ± 0.014 | 0.654 ± 0.014 | 0.722 ± 0.039 |
| CWLFVWVRVISL | 0.186 ± 0.033 | 0.0995 ± 0.049 | 0.118 ± 0.01 | 0.155 ± 0.038 | 0.23174 ± 3.6e-05 | 0.103 ± 0.024 | 0.12 ± 0.033 | 0.158 ± 0.018 |
| PPPLLVRPWFLV | 0.214 ± 0.05 | 0.618 ± 0.054 | 0.725 ± 0.013 | 0.612 ± 0.029 | 0.741 ± 0.024 | 0.147 ± 0.018 | 0.157 ± 0.019 | 0.269 ± 0.02 |
| KEKKKTKHNKIG | 0.216 ± 0.038 | 0.587 ± 0.059 | 0.7521 ± 0.0072 | 0.631 ± 0.014 | 0.742 ± 0.011 | 0.184 ± 0.029 | 0.155 ± 0.032 | 0.314 ± 0.02 |
| FLSLPLFILFLS | 0.132 ± 0.014 | 0.229 ± 0.036 | 0.232 ± 0.041 | 0.283 ± 0.029 | 0.39 ± 0.02 | 0.1217 ± 0.00068 | 0.0821 ± 0.013 | 0.119 ± 0.0033 |
| LFMRGEDEMFSV | 0.746 ± 0.018 | 0.722 ± 0.052 | 0.758 ± 0.024 | 0.658 ± 0.01 | 0.7826 ± 0.0013 | 0.668 ± 0.012 | 0.672 ± 0.022 | 0.766 ± 0.036 |
| CVFCRVAVGVDG | 0.516 ± 0.026 | 0.5389 ± 0.0011 | 0.5838 ± 0.0043 | 0.438 ± 0.03 | 0.616 ± 0.0086 | 0.428 ± 0.028 | 0.439 ± 0.0076 | 0.5899 ± 0.0034 |
| VVGVVVCWGRGW | 0.496 ± 0.046 | 0.603 ± 0.015 | 0.666 ± 0.029 | 0.463 ± 0.024 | 0.653 ± 0.0096 | 0.448 ± 0.019 | 0.469 ± 0.015 | 0.6212 ± 0.0058 |
| FVVSCLSWVFLF | 0.175 ± 0.024 | 0.429 ± 0.0099 | 0.528 ± 0.04 | 0.434 ± 0.032 | 0.5418 ± 0.004 | 0.101 ± 0.022 | 0.114 ± 0.025 | 0.127 ± 0.026 |
| VFHMFGWCGGAR | 0.764 ± 0.071 | 0.728 ± 0.015 | 0.8 ± 0.0098 | 0.673 ± 0.012 | 0.77 ± 0.026 | 0.678 ± 0.042 | 0.673 ± 0.028 | 0.7518 ± 0.0011 |
| RGWGGGTWVKMG | 0.3012 ± 0.0016 | 0.592 ± 0.011 | 0.72324 ± 0.00012 | 0.664 ± 0.018 | 0.767 ± 0.013 | 0.113 ± 0.019 | 0.121 ± 0.015 | 0.203 ± 0.004 |
| FFVFSFVLFFPL | 0.369 ± 0.049 | 0.347 ± 0.0076 | 0.427 ± 0.054 | 0.305 ± 0.046 | 0.456 ± 0.025 | 0.307 ± 0.006 | 0.322 ± 0.029 | 0.444 ± 0.022 |
| LGLLIFQWARVL | 0.12 ± 0.035 | 0.302 ± 0.015 | 0.5 ± 0.0084 | 0.405 ± 0.026 | 0.553 ± 0.0056 | 0.0666 ± 0.012 | 0.0808 ± 0.016 | 0.092 ± 0.0037 |
| GSLPERPLRYVC | 0.162 ± 0.01 | 0.516 ± 0.035 | 0.6878 ± 0.004 | 0.651 ± 0.017 | 0.7239 ± 0.0021 | 0.1 ± 0.028 | 0.0973 ± 0.013 | 0.148 ± 0.016 |
| ARALLGVGWYWV | 0.417 ± 0.024 | 0.654 ± 0.015 | 0.7854 ± 0.0065 | 0.645 ± 0.018 | 0.761 ± 0.02 | 0.225 ± 0.014 | 0.272 ± 0.02 | 0.537 ± 0.0059 |
| FFLLSVVLKYSV | 0.19 ± 0.015 | 0.0374 ± 0.0046 | 0.08659 ± 0.00036 | 0.103 ± 0.029 | 0.174 ± 0.0019 | 0.093 ± 0.021 | 0.0922 ± 0.021 | 0.14 ± 0.0075 |

| Sequence | protein stability index (Saccharomyces cerevisiae [1]) | protein stability index (Saccharomyces cerevisiae [2]; [3]) | protein stability index (Saccharomyces cerevisiae [2]; [4]) | protein stability index (Saccharomyces cerevisiae [2]; [5]) | protein stability index (Saccharomyces cerevisiae [2]; [6]) | protein stability index (Saccharomyces cerevisiae [2]; [7]) | protein stability index (Saccharomyces cerevisiae [2]; [8]) | protein stability index (Saccharomyces cerevisiae [2]; [9]) |
| --- | --- | --- | --- | --- | --- | --- | --- | --- |
| CLLGMKSRTILV | 0.377 ± 0.014 | 0.347 ± 0.029 | 0.33 ± 0.0047 | 0.289 ± 0.028 | 0.4262 ± 0.0024 | 0.236 ± 0.006 | 0.287 ± 0.03 | 0.397 ± 0.015 |
| SLRSLYLLARLS | 0.194 ± 0.021 | 0.518 ± 0.061 | 0.689 ± 0.047 | 0.636 ± 0.033 | 0.732 ± 0.012 | 0.076 ± 0.017 | 0.0777 ± 0.024 | 0.0971 ± 0.015 |
| WVIWFFVAACLR | 0.3339 ± 0.00096 | 0.219 ± 0.006 | 0.24 ± 0.018 | 0.209 ± 0.024 | 0.347 ± 0.025 | 0.239 ± 0.0077 | 0.212 ± 0.022 | 0.311 ± 0.0079 |
| SVFVFFGFIDFL | 0.469 ± 0.011 | 0.52 ± 0.015 | 0.589 ± 0.12 | 0.404 ± 0.036 | 0.6007 ± 0.0035 | 0.369 ± 0.015 | 0.412 ± 0.036 | 0.581 ± 0.0099 |
| GRLVPVILLKLV | 0.099045 ± 4e-05 | 0.3011 ± 0.0019 | 0.471 ± 0.015 | 0.441 ± 0.031 | 0.5625 ± 0.00087 | 0.0719 ± 0.018 | 0.0651 ± 0.015 | 0.0817 ± 0.0024 |
| VTFCFLFVWFLV | 0.283 ± 0.048 | 0.269 ± 0.004 | 0.378 ± 0.018 | 0.27 ± 0.028 | 0.413 ± 0.0092 | 0.23 ± 0.015 | 0.226 ± 0.012 | 0.345 ± 0.013 |
| IYPPVSVTNLLV | 0.357 ± 0.1 | 0.6646 ± 0.0022 | 0.723 ± 0.0079 | 0.646 ± 0.036 | 0.723 ± 0.014 | 0.227 ± 0.029 | 0.255 ± 0.032 | 0.461 ± 0.0062 |
| VLGRCWWIVSDL | 0.566 ± 0.19 | 0.736 ± 0.037 | 0.782 ± 0.011 | 0.661 ± 0.016 | 0.763 ± 0.015 | 0.659 ± 0.025 | 0.67 ± 0.024 | 0.755 ± 0.0049 |
| TNFVVRLRFVLF | 0.366 ± 0.029 | 0.534 ± 0.021 | 0.5485 ± 0.00062 | 0.464 ± 0.016 | 0.522 ± 0.02 | 0.29 ± 0.015 | 0.295 ± 0.0087 | 0.419 ± 0.011 |
| SLVLLLLITFSL | 0.491 ± 0.017 | 0.431 ± 0.023 | 0.507 ± 0.015 | 0.376 ± 0.025 | 0.527 ± 0.014 | 0.377 ± 0.016 | 0.373 ± 0.02 | 0.495 ± 0.021 |
| LFWCCVGLSVWR | 0.43 ± 0.011 | 0.367 ± 0.063 | 0.474 ± 0.026 | 0.318 ± 0.022 | 0.5026 ± 0.0031 | 0.278 ± 0.0092 | 0.31 ± 0.016 | 0.494 ± 0.023 |
| LHRLRFTLVQVS | 0.223 ± 0.022 | 0.171 ± 0.0037 | 0.196 ± 0.036 | 0.228 ± 0.032 | 0.32664 ± 0.00013 | 0.127 ± 0.018 | 0.163 ± 0.021 | 0.2 ± 0.0028 |
| VLVVLVVCRRAE | 0.324 ± 0.032 | 0.247 ± 0.039 | 0.412 ± 0.0043 | 0.226 ± 0.028 | 0.438 ± 0.0089 | 0.18 ± 0.041 | 0.226 ± 0.029 | 0.422 ± 0.0083 |
| FTEFWFFKQMSV | 0.171 ± 0.016 | 0.579 ± 0.019 | 0.761 ± 0.015 | 0.618 ± 0.031 | 0.7757 ± 0.0069 | 0.11 ± 0.01 | 0.126 ± 0.022 | 0.137 ± 0.04 |
| LLLCVVLVSVFG | 0.18 ± 0.0041 | 0.0374 ± 0.0057 | 0.0791 ± 0.044 | 0.122 ± 0.025 | 0.174 ± 0.02 | 0.0854 ± 0.0049 | 0.102 ± 0.023 | 0.134 ± 0.027 |
| SFFFSFFPYFFC | 0.4425 ± 0.0029 | 0.6386 ± 0.0014 | 0.675 ± 0.02 | 0.606 ± 0.06 | 0.732 ± 0.023 | 0.401 ± 0.012 | 0.394 ± 0.017 | 0.561 ± 0.015 |
| FYSLVQAWSKAP | 0.501 ± 0.018 | 0.721 ± 0.037 | 0.715 ± 0.01 | 0.648 ± 0.012 | 0.727 ± 0.021 | 0.3898 ± 0.0019 | 0.415 ± 0.027 | 0.627 ± 0.018 |
| VAFLWVAFCFSG | 0.276 ± 0.046 | 0.205 ± 0.0023 | 0.355 ± 0.044 | 0.224 ± 0.03 | 0.3883 ± 0.0035 | 0.178 ± 0.019 | 0.203 ± 0.016 | 0.366 ± 0.021 |
| RFWFTFYLIAVF | 0.103 ± 0.0027 | 0.0612 ± 0.029 | 0.0779 ± 0.017 | 0.109 ± 0.031 | 0.203 ± 0.0098 | 0.0617 ± 0.016 | 0.0761 ± 0.023 | 0.163 ± 0.081 |
